Assay results taken from patent publication US20100080799.

Tested on: recombinant H2A.X (WT), N-terminal 6xHis tag

recombinant N-terminal portion of WSTF (N-WSTF)
kinase activity (in vitro kinase assay): Only N-WSTF had kinase activity
